Numbered stars: 1 amine (or outer) side, 2 acyl side, 3 side chain; on linkers, the order of the positions; unused ones are H or OH. Square brackets hold non-standard residues; d marks the D form. Side chains are listed from the residue outwards. * marks the point of attachment. C18 diacid = O=C(O)CCCCCCCCCCCCCCCCC(=O)*; γGlu = O=C(O)[C@H](CCC(=O)[*:2])N[*:1]; Aib = CC(C)(N)C(=O)O
T1: human GLP-2 receptor (hGLP2-R) (human, UniProt O95838)
T1 sequence: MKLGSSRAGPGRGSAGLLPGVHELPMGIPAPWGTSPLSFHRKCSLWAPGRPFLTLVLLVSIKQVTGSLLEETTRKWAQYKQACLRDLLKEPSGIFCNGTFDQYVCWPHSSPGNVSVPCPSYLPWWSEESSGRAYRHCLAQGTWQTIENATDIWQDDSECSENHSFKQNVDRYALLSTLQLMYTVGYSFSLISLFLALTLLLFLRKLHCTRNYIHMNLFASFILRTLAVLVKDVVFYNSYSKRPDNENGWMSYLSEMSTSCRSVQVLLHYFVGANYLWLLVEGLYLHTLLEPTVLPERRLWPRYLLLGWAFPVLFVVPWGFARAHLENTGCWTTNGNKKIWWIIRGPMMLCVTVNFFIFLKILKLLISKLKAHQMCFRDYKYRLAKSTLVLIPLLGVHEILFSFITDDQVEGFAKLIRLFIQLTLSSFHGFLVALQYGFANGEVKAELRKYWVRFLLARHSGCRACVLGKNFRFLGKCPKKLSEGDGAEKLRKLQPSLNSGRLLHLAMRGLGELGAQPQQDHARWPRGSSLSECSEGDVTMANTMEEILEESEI

B1: Compound 17 (peptide)
peptide: H-H[Aib]EGTFSSELATILDK([γGlu-C18 diacid])QAARDFIAWLIQHKITD-OH
SMILES: CC[C@H](C)[C@H](NC(=O)[C@H](Cc1ccccc1)NC(=O)[C@H](CC(=O)O)NC(=O)[C@H](CCCNC(=N)N)NC(=O)[C@H](C)NC(=O)[C@H](C)NC(=O)[C@H](CCC(N)=O)NC(=O)[C@H](CCCCNC(=O)CC[C@H](NC(=O)CCCCCCCCCCCCCCCCC(=O)O)C(=O)O)NC(=O)[C@H](CC(=O)O)NC(=O)[C@H](CC(C)C)NC(=O)[C@@H](NC(=O)[C@@H](NC(=O)[C@H](C)NC(=O)[C@H](CC(C)C)NC(=O)[C@H](CCC(=O)O)NC(=O)[C@H](CO)NC(=O)[C@H](CO)NC(=O)[C@H](Cc1ccccc1)NC(=O)[C@@H](NC(=O)CNC(=O)[C@H](CCC(=O)O)NC(=O)C(C)(C)NC(=O)[C@@H](N)Cc1c[nH]cn1)[C@@H](C)O)[C@@H](C)O)[C@@H](C)CC)C(=O)N[C@@H](C)C(=O)N[C@@H](Cc1c[nH]c2ccccc12)C(=O)N[C@@H](CC(C)C)C(=O)N[C@H](C(=O)N[C@@H](CCC(N)=O)C(=O)N[C@@H](Cc1c[nH]cn1)C(=O)N[C@@H](CCCCN)C(=O)N[C@H](C(=O)N[C@H](C(=O)N[C@@H](CC(=O)O)C(=O)O)[C@@H](C)O)[C@@H](C)CC)[C@@H](C)CC
B2: Compound 18 (peptide)
peptide: H-H[Aib]EGSFTSELATILDK([γGlu-C18 diacid])QAARDFIAWLIQHKITD-OH
SMILES: CC[C@H](C)[C@H](NC(=O)[C@H](Cc1ccccc1)NC(=O)[C@H](CC(=O)O)NC(=O)[C@H](CCCNC(=N)N)NC(=O)[C@H](C)NC(=O)[C@H](C)NC(=O)[C@H](CCC(N)=O)NC(=O)[C@H](CCCCNC(=O)CC[C@H](NC(=O)CCCCCCCCCCCCCCCCC(=O)O)C(=O)O)NC(=O)[C@H](CC(=O)O)NC(=O)[C@H](CC(C)C)NC(=O)[C@@H](NC(=O)[C@@H](NC(=O)[C@H](C)NC(=O)[C@H](CC(C)C)NC(=O)[C@H](CCC(=O)O)NC(=O)[C@H](CO)NC(=O)[C@@H](NC(=O)[C@H](Cc1ccccc1)NC(=O)[C@H](CO)NC(=O)CNC(=O)[C@H](CCC(=O)O)NC(=O)C(C)(C)NC(=O)[C@@H](N)Cc1c[nH]cn1)[C@@H](C)O)[C@@H](C)O)[C@@H](C)CC)C(=O)N[C@@H](C)C(=O)N[C@@H](Cc1c[nH]c2ccccc12)C(=O)N[C@@H](CC(C)C)C(=O)N[C@H](C(=O)N[C@@H](CCC(N)=O)C(=O)N[C@@H](Cc1c[nH]cn1)C(=O)N[C@@H](CCCCN)C(=O)N[C@H](C(=O)N[C@H](C(=O)N[C@@H](CC(=O)O)C(=O)O)[C@@H](C)O)[C@@H](C)CC)[C@@H](C)CC
B3: Compound 20 (peptide)
peptide: H-H[Aib]EGTFSSELATILDK([γGlu-C18 diacid])QAARDFIAWLIEHKITD-OH
SMILES: CC[C@H](C)[C@H](NC(=O)[C@H](Cc1ccccc1)NC(=O)[C@H](CC(=O)O)NC(=O)[C@H](CCCNC(=N)N)NC(=O)[C@H](C)NC(=O)[C@H](C)NC(=O)[C@H](CCC(N)=O)NC(=O)[C@H](CCCCNC(=O)CC[C@H](NC(=O)CCCCCCCCCCCCCCCCC(=O)O)C(=O)O)NC(=O)[C@H](CC(=O)O)NC(=O)[C@H](CC(C)C)NC(=O)[C@@H](NC(=O)[C@@H](NC(=O)[C@H](C)NC(=O)[C@H](CC(C)C)NC(=O)[C@H](CCC(=O)O)NC(=O)[C@H](CO)NC(=O)[C@H](CO)NC(=O)[C@H](Cc1ccccc1)NC(=O)[C@@H](NC(=O)CNC(=O)[C@H](CCC(=O)O)NC(=O)C(C)(C)NC(=O)[C@@H](N)Cc1c[nH]cn1)[C@@H](C)O)[C@@H](C)O)[C@@H](C)CC)C(=O)N[C@@H](C)C(=O)N[C@@H](Cc1c[nH]c2ccccc12)C(=O)N[C@@H](CC(C)C)C(=O)N[C@H](C(=O)N[C@@H](CCC(=O)O)C(=O)N[C@@H](Cc1c[nH]cn1)C(=O)N[C@@H](CCCCN)C(=O)N[C@H](C(=O)N[C@H](C(=O)N[C@@H](CC(=O)O)C(=O)O)[C@@H](C)O)[C@@H](C)CC)[C@@H](C)CC
B4: Compound 21 (peptide)
peptide: H-H[Aib]EGTFSSELATILDK([γGlu-C18 diacid])QAARDFIAWLIAHKITD-OH
SMILES: CC[C@H](C)[C@H](NC(=O)[C@H](CC(C)C)NC(=O)[C@H](Cc1c[nH]c2ccccc12)NC(=O)[C@H](C)NC(=O)[C@@H](NC(=O)[C@H](Cc1ccccc1)NC(=O)[C@H](CC(=O)O)NC(=O)[C@H](CCCNC(=N)N)NC(=O)[C@H](C)NC(=O)[C@H](C)NC(=O)[C@H](CCC(N)=O)NC(=O)[C@H](CCCCNC(=O)CC[C@H](NC(=O)CCCCCCCCCCCCCCCCC(=O)O)C(=O)O)NC(=O)[C@H](CC(=O)O)NC(=O)[C@H](CC(C)C)NC(=O)[C@@H](NC(=O)[C@@H](NC(=O)[C@H](C)NC(=O)[C@H](CC(C)C)NC(=O)[C@H](CCC(=O)O)NC(=O)[C@H](CO)NC(=O)[C@H](CO)NC(=O)[C@H](Cc1ccccc1)NC(=O)[C@@H](NC(=O)CNC(=O)[C@H](CCC(=O)O)NC(=O)C(C)(C)NC(=O)[C@@H](N)Cc1c[nH]cn1)[C@@H](C)O)[C@@H](C)O)[C@@H](C)CC)[C@@H](C)CC)C(=O)N[C@@H](C)C(=O)N[C@@H](Cc1c[nH]cn1)C(=O)N[C@@H](CCCCN)C(=O)N[C@H](C(=O)N[C@H](C(=O)N[C@@H](CC(=O)O)C(=O)O)[C@@H](C)O)[C@@H](C)CC
B5: Compound 16 (peptide)
peptide: H-H[Aib]EGTFTSELATILDK([γGlu-C18 diacid])EAARLFIAWLIEHKITD-OH
SMILES: CC[C@H](C)[C@H](NC(=O)[C@H](Cc1ccccc1)NC(=O)[C@H](CC(C)C)NC(=O)[C@H](CCCNC(=N)N)NC(=O)[C@H](C)NC(=O)[C@H](C)NC(=O)[C@H](CCC(=O)O)NC(=O)[C@H](CCCCNC(=O)CC[C@H](NC(=O)CCCCCCCCCCCCCCCCC(=O)O)C(=O)O)NC(=O)[C@H](CC(=O)O)NC(=O)[C@H](CC(C)C)NC(=O)[C@@H](NC(=O)[C@@H](NC(=O)[C@H](C)NC(=O)[C@H](CC(C)C)NC(=O)[C@H](CCC(=O)O)NC(=O)[C@H](CO)NC(=O)[C@@H](NC(=O)[C@H](Cc1ccccc1)NC(=O)[C@@H](NC(=O)CNC(=O)[C@H](CCC(=O)O)NC(=O)C(C)(C)NC(=O)[C@@H](N)Cc1c[nH]cn1)[C@@H](C)O)[C@@H](C)O)[C@@H](C)O)[C@@H](C)CC)C(=O)N[C@@H](C)C(=O)N[C@@H](Cc1c[nH]c2ccccc12)C(=O)N[C@@H](CC(C)C)C(=O)N[C@H](C(=O)N[C@@H](CCC(=O)O)C(=O)N[C@@H](Cc1c[nH]cn1)C(=O)N[C@@H](CCCCN)C(=O)N[C@H](C(=O)N[C@H](C(=O)N[C@@H](CC(=O)O)C(=O)O)[C@@H](C)O)[C@@H](C)CC)[C@@H](C)CC
B6: Compound 15 (peptide)
peptide: H-H[Aib]EGTFTSELATILDK([γGlu-C18 diacid])LAARDFIAWLIAHKITD-OH
SMILES: CC[C@H](C)[C@H](NC(=O)[C@H](CC(C)C)NC(=O)[C@H](Cc1c[nH]c2ccccc12)NC(=O)[C@H](C)NC(=O)[C@@H](NC(=O)[C@H](Cc1ccccc1)NC(=O)[C@H](CC(=O)O)NC(=O)[C@H](CCCNC(=N)N)NC(=O)[C@H](C)NC(=O)[C@H](C)NC(=O)[C@H](CC(C)C)NC(=O)[C@H](CCCCNC(=O)CC[C@H](NC(=O)CCCCCCCCCCCCCCCCC(=O)O)C(=O)O)NC(=O)[C@H](CC(=O)O)NC(=O)[C@H](CC(C)C)NC(=O)[C@@H](NC(=O)[C@@H](NC(=O)[C@H](C)NC(=O)[C@H](CC(C)C)NC(=O)[C@H](CCC(=O)O)NC(=O)[C@H](CO)NC(=O)[C@@H](NC(=O)[C@H](Cc1ccccc1)NC(=O)[C@@H](NC(=O)CNC(=O)[C@H](CCC(=O)O)NC(=O)C(C)(C)NC(=O)[C@@H](N)Cc1c[nH]cn1)[C@@H](C)O)[C@@H](C)O)[C@@H](C)O)[C@@H](C)CC)[C@@H](C)CC)C(=O)N[C@@H](C)C(=O)N[C@@H](Cc1c[nH]cn1)C(=O)N[C@@H](CCCCN)C(=O)N[C@H](C(=O)N[C@H](C(=O)N[C@@H](CC(=O)O)C(=O)O)[C@@H](C)O)[C@@H](C)CC
B7: Compound 19 (peptide)
peptide: H-H[Aib]EGTFTSELATILDK([γGlu-C18 diacid])QAARDFIAWLIQHKITD-OH
SMILES: CC[C@H](C)[C@H](NC(=O)[C@H](Cc1ccccc1)NC(=O)[C@H](CC(=O)O)NC(=O)[C@H](CCCNC(=N)N)NC(=O)[C@H](C)NC(=O)[C@H](C)NC(=O)[C@H](CCC(N)=O)NC(=O)[C@H](CCCCNC(=O)CC[C@H](NC(=O)CCCCCCCCCCCCCCCCC(=O)O)C(=O)O)NC(=O)[C@H](CC(=O)O)NC(=O)[C@H](CC(C)C)NC(=O)[C@@H](NC(=O)[C@@H](NC(=O)[C@H](C)NC(=O)[C@H](CC(C)C)NC(=O)[C@H](CCC(=O)O)NC(=O)[C@H](CO)NC(=O)[C@@H](NC(=O)[C@H](Cc1ccccc1)NC(=O)[C@@H](NC(=O)CNC(=O)[C@H](CCC(=O)O)NC(=O)C(C)(C)NC(=O)[C@@H](N)Cc1c[nH]cn1)[C@@H](C)O)[C@@H](C)O)[C@@H](C)O)[C@@H](C)CC)C(=O)N[C@@H](C)C(=O)N[C@@H](Cc1c[nH]c2ccccc12)C(=O)N[C@@H](CC(C)C)C(=O)N[C@H](C(=O)N[C@@H](CCC(N)=O)C(=O)N[C@@H](Cc1c[nH]cn1)C(=O)N[C@@H](CCCCN)C(=O)N[C@H](C(=O)N[C@H](C(=O)N[C@@H](CC(=O)O)C(=O)O)[C@@H](C)O)[C@@H](C)CC)[C@@H](C)CC

The binders below were run against T1, human GLP-2 receptor (hGLP2-R) (assay: cell-based or functional assay).

Row | Binder | EC50 GLP-2 (nM), cAMP AlphaScreen [nM]
1 | B1 | 0.33
2 | B2 | 0.21
3 | B3 | 0.37
4 | B4 | 0.27
5 | B5 | 0.68
6 | B6 | 0.16
7 | B7 | 0.23

These binders were tested against human glucagon-like peptide 1 receptor (GLP-1R) (human, UniProt P43220) (assay: cell-based or functional assay).

Row | Binder | EC50 GLP-1 (nM), cAMP AlphaScreen [nM]
8 | B1 | 0.9
9 | B2 | 0.19
10 | B3 | 0.55
11 | B4 | 1.8
12 | B5 | 0.073
13 | B6 | 0.25
14 | B7 | 0.066

— patent US20250073311A1, “DOSAGE REGIME” (ZEALAND PHARMA A/S, priority 2021, published 2025)
